The test system of data set [1] is GNH nanocarrier (GP41 endosome release motif, DNA condensing motif, NLS) (synthetic construct). Nature of the data set: EMSA (agarose gel retardation). Conditions: not given in the material (gel retardation methods text absent); ethidium bromide staining. On the technique in general: A gel shift assay detects complexes by their altered migration in electrophoresis.

In data set [2] the test system is HNH nanocarrier (H5WYG endosome release motif, DNA condensing motif, NLS) (synthetic construct). Nature of the data set: EMSA (agarose gel retardation). The conditions noted are these: not given in the material (gel retardation methods text absent); ethidium bromide staining.

Consider pGL3 plasmid, for which the binding (N/P ratio for complete retardation) in data set [1] and in data set [2] was 1 each time.

The values above are taken from PMC5269746.
